The record followed here is article PMC7503470 (Molecules, 2020).

One data set in a line: in vivo. The settings on record: male, NOD-scid IL2Rg^null (NSG), mouse, iv, total radioactivity. As to the method: All imaging and biodistribution studies were performed using male NOD-scid IL2Rg^null (NSG) mice and conducted according to the guidelines established by the Canadian Council on Animal Care and approved by Animal Ethics Committee of the University of British Columbia. For tumor inoculations, mice were anesthetized by inhalation with 2% isoflurane in oxygen and implanted subcutaneously with 5 × 10^6 LNCaP cells below the left shoulder. Imaging and biodistribution studies were performed only after tumors grew to 5−8 mm in diameter over a period of 5−7 weeks.
For ex vivo biodistribution studies, mice were injected with ~1.5−3 MBq of the ^68Ga-labeled tracer. At 1 h p.i., mice were euthanized, blood was drawn from heart, and organs/tissues of interest were collected, rinsed with PBS, blotted dry, weighed, and counted using an automated gamma counter. The uptake in each organ/tissue was normalized to the injected dose and expressed as the percentage of the injected dose per gram of tissue (%ID/g).
Statistical analyses were performed by Student’s t-test using the Microsoft (Redmond, WA, USA) Excel software. The unpaired, two-tailed test was used to compare tissue uptake and tumor-to-background (muscle, blood and kidney) contrast ratios of [^68Ga]Ga-DOTA-AmBz-MVK(HTK01166)-OH and [^68Ga]Ga-DOTA-AmBz-M(O)VK(HTK01166)-OH. The unpaired, one-tailed test was used to compare kidney uptake of [^68Ga]Ga-DOTA-AmBz-MVK(HTK01166)-OH (or [^68Ga]Ga-DOTA-AmBz-M(O)VK(HTK01166)-OH) with that of the previously reported [^68Ga]Ga-HTK01166 [15]. The difference was considered statistically significant when the p value was <0.05.

A further data set has as its system mice. The conditions noted are these: mouse, in vivo. How it is done: Radio-metabolites of [^68Ga]Ga-DOTA-AmBz-MVK(Ac)-OH and [^68Ga]Ga-DOTA-AmBz-MVK(HTK01166)-OH in mouse blood and urine samples were analyzed by HPLC. The blood samples were collected at 5 min p.i. due to the fast excretion nature of the small radio-metabolites, whereas the urine samples were collected at 15 min p.i. to allow sufficient time for the accumulation of enough radio-metabolites for analysis.
Male NSG mice were injected with 3–17 MBq of the ^68Ga-labeled peptide. For blood profiling, mice were anesthetized with 2% isoflurane in O2 and euthanized by CO2 inhalation at 5 min p.i. Blood draw was then performed by cardiac puncture and blood was collected in an eppendorf tube with equal volume of CH3CN. Each tube was then centrifuged at RT for 10–15 min and the resulting supernatant was collected and analyzed using the analytical HPLC column to identify and quantify radio-metabolite(s) in blood. For the purpose of urine profiling, urine was collected after euthanizing the mice at 15 min p.i. The urine samples were also collected and analyzed using the analytical HPLC column to identify and quantify radio-metabolite(s) in urine.

Data set [1] can be described thus: brush border membrane vesicles (BBMVs) extracted from mouse kidneys, control well with phosphoramidon. The settings on record: 37 °C, up to 1 h.
Data set [2] is described as follows: brush border membrane vesicles (BBMVs) extracted from mouse kidneys. The conditions noted are these: 37 °C, up to 1 h.
A short description of data set [3]: mouse urine samples collected at 15 min p.i. The settings on record: Male NSG mice, up to 15 min p.i.
A short description of data set [4]: mouse blood samples collected at 5 min p.i. The settings on record: Male NSG mice, up to 5 min p.i.
Data set [5] can be described thus: brush border membrane vesicles (BBMVs) extracted from mouse kidneys, with phosphoramidon. The settings on record: 37 °C, up to 1 h.

Take `CC(C)[C@H](NC(=O)[C@H](CC[S+](C)[O-])NC(=O)c1ccc(CNC(=O)CN2CCN(CC(=O)O)CCN(CC(=O)O)CCN(CC(=O)O)CC2)cc1)C(=O)N[C@@H](CCCCNC(=O)CCc1cn(CC(=O)NC[C@H]2CC[C@H](C(=O)N[C@H](C(=O)NCCCC[C@H](NC(=O)N[C@@H](CCC(=O)O)C(=O)O)C(=O)O)C3Cc4ccccc4C3)CC2)nn1)C(=O)O` (stereo partly shown) [[^68Ga]Ga-DOTA-AmBz-M(O)VK(HTK01166)-OH, metal not drawn]: the tissue uptake at 1 h in “in vivo” (Adrenal Glands uptake) was 4.33 ± 2.07 %ID/g; in the data set “in vivo” (Bone uptake), 0.11 ± 0.05 %ID/g; in “in vivo” (Brain uptake) it was 0.03 ± 0.01 %ID/g; in “in vivo” (Fat uptake), 0.52 ± 0.13 %ID/g; in “in vivo” (Heart uptake), 0.23 ± 0.05 %ID/g; in “in vivo” (Intestines uptake), 0.29 ± 0.1 %ID/g. Besides, the tissue uptake at 1 h in “in vivo” (Kidneys uptake) is 89.7 ± 19.3 %ID/g; in “in vivo” (LNCaP Tumor uptake), 4.06 ± 1.27 %ID/g; in the data set “in vivo” (Liver uptake) it was 0.32 ± 0.06 %ID/g; in the data set “in vivo” (Lungs uptake), 0.88 ± 0.1 %ID/g; in “in vivo” (Muscle uptake), 0.22 ± 0.05 %ID/g; in the data set “in vivo” (Pancreas uptake), 0.56 ± 0.24 %ID/g. In addition, the tissue uptake at 1 h was determined as 11.5 ± 2.7 %ID/g in “in vivo” (Spleen uptake), 0.13 ± 0.05 %ID/g in “in vivo” (Stomach uptake), 1.86 ± 2.44 %ID/g in the data set “in vivo” (Tail uptake) and 0.31 ± 0.07 %ID/g in “in vivo” (Testes uptake). The tissue to tissue ratio at 1 h was determined as 6.83 ± 2.81 in the data set “in vivo” (Tumor/Blood uptake ratio), 0.04 ± 0.02 in “in vivo” (Tumor/Kidney uptake ratio) and 17.9 ± 7.57 in the data set “in vivo” (Tumor/Muscle uptake ratio).
With `CSCC[C@H](NC(=O)c1ccc(CNC(=O)CN2CCN(CC(=O)O)CCN(CC(=O)O)CCN(CC(=O)O)CC2)cc1)C(=O)N[C@H](C(=O)N[C@@H](CCCCNC(=O)CCc1cn(CC(=O)NC[C@H]2CC[C@H](C(=O)N[C@H](C(=O)NCCCC[C@H](NC(=O)N[C@@H](CCC(=O)O)C(=O)O)C(=O)O)C3Cc4ccccc4C3)CC2)nn1)C(=O)O)C(C)C` [[^68Ga]Ga-DOTA-AmBz-MVK(HTK01166)-OH, metal not drawn], the “unidentified radio-metabolite in urine” value in the data set with mice was “no presence”. Moreover, the tissue uptake at 1 h in “in vivo” (Adrenal Glands uptake) amounted to 5.59 ± 4.02 %ID/g; in “in vivo” (Bone uptake) it was 0.16 ± 0.04 %ID/g; in “in vivo” (Brain uptake) it was 0.02 %ID/g; in “in vivo” (Fat uptake) it was 0.72 ± 0.33 %ID/g; in “in vivo” (Heart uptake), 0.25 ± 0.12 %ID/g; in the data set “in vivo” (Intestines uptake) it was 0.4 ± 0.1 %ID/g. Besides, the tissue uptake at 1 h in the data set “in vivo” (Kidneys uptake) is 104 ± 12.2 %ID/g; in the data set “in vivo” (LNCaP Tumor uptake) it was 3.98 ± 0.87 %ID/g; in “in vivo” (Liver uptake), 0.58 ± 0.08 %ID/g; in “in vivo” (Lungs uptake) it was 0.96 ± 0.12 %ID/g; in the data set “in vivo” (Muscle uptake), 0.21 ± 0.05 %ID/g; in “in vivo” (Pancreas uptake), 0.6 ± 0.22 %ID/g. Also, the tissue uptake at 1 h in “in vivo” (Spleen uptake) is 8.87 ± 2.63 %ID/g; in the data set “in vivo” (Stomach uptake), 0.11 ± 0.02 %ID/g; in the data set “in vivo” (Tail uptake), 1.03 ± 0.82 %ID/g; in the data set “in vivo” (Testes uptake), 0.36 ± 0.06 %ID/g. In addition, the tissue to tissue ratio at 1 h came to 7.24 ± 1.16 in “in vivo” (Tumor/Blood uptake ratio), 0.04 ± 0.01 in “in vivo” (Tumor/Kidney uptake ratio) and 19.9 ± 5.41 in the data set “in vivo” (Tumor/Muscle uptake ratio).
Turning to [^68Ga]Ga-DOTA-AmBz-M(O)VK(HTK01166)-OH, the not cleaved is recorded as 99.5% remaining intact after 1 h in data set [1] and 94% remaining intact after 1 h in data set [2].
In the case of [^68Ga]Ga-DOTA-AmBz-MVK(Ac)-OH, the cleaved bond entry in data set [3] was “Met-Val, major, 15 min p.i”; in data set [1], “Met-Val, 1 h”; in data set [2], “Met-Val, major, 1 h”; in data set [4], “Met-Val, minor, 5 min p.i”.
In the case of [^68Ga]Ga-DOTA-AmBz-MVK(HTK01166)-OH, the cleaved bond result in data set [3] is recorded as “Met-Val, 15 min p.i”; in data set [2] it was “Met-Val, 1 h”; in data set [4], “Met-Val, 5 min p.i”. Also, in data set [5], the not cleaved was roughly 95% intact after 1 h.

The term tissue uptake denotes the percentage of the injected dose found per gram of tissue.
